Source: article PMC10786891, “Massively parallel profiling of RNA-targeting CRISPR-Cas13d”
Substitutions are numbered along the chain they refer to. Names may count otherwise.

Biological target: T1, EsCas13d, nuclease-dead (Eubacterium siraeum, UniProt B0MS50, R295A;H300A;R849A;H854A)
T1 sequence: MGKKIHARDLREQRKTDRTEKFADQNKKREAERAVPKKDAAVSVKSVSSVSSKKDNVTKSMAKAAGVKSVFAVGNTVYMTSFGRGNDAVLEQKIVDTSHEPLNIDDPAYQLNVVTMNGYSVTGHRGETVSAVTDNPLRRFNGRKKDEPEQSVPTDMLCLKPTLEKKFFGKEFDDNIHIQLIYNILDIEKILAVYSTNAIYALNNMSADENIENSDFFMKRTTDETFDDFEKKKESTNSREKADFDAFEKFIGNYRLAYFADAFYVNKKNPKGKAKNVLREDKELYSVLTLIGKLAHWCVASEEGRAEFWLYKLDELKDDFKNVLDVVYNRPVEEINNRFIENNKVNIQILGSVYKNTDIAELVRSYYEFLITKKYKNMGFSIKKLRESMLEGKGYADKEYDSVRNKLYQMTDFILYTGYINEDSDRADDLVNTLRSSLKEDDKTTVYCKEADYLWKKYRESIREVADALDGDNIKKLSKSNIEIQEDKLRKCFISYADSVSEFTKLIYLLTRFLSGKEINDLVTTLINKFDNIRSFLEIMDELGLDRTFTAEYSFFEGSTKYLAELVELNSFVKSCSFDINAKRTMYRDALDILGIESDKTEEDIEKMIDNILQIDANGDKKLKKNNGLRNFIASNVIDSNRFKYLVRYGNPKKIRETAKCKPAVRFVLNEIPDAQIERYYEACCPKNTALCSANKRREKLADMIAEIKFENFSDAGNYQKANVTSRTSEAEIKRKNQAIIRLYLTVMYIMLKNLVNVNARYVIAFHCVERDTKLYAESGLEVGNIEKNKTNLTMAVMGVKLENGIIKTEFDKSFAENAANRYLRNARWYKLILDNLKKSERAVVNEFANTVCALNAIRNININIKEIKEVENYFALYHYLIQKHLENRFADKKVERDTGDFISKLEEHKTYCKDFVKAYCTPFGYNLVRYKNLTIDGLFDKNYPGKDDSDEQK
Test: crRNA (strand 1, pre-loaded); Mg2+; 40 mM Tris-HCl pH 7.5, 150 mM NaCl, 6 mM MgCl2, 1 mM DTT, 0.1% Tween-20, 0.2 mg/ml BSA; 25 C; 10 min per concentration, then washed
Settings: tags: His6-TwinStrep-SUMO cleaved; N-terminal SNAP kept (SNAP-Surface 488); label: 3' end held by stalled T7 RNA polymerase

B1: target 1 MT 5'PFS AGC 3'PFS UAG (mixed)
RNA 1: CACCCGUGCAAAAAUGCAGGGGUCUAAAACUGAGCGGAUAACCUCUCUAUGG
RNA 2: GGGAAUGGAUCCACAUCUACGAAUUCAGCCCAUAGAGAGGUUAUCCGCUCAUAGAGAUCGGAAGAGCACACGU
**Q.** For B1, which Kd is on record?
**A.** 17 ± 6.5 nM

B2: target 1 MT 5'PFS GCC 3'PFS CAC (mixed)
RNA 1: B1 RNA 1
RNA 2: B1 RNA 2 with A27G, G28C, U52C, G54C
**Q.** For B2, which Kd is on record?
**A.** ~34 nM

B3: target 1 MT 5'PFS GCU 3'PFS AAU (mixed)
RNA 1: B1 RNA 1
RNA 2: B1 RNA 2 with A27G, G28C, C29U, U52A, G54U
**Q.** Which Kd does the source give for B3 here?
**A.** ~82.5 nM

B4: target 1 MT 5'PFS GGG 3'PFS CCU (mixed)
RNA 1: B1 RNA 1
RNA 2: B1 RNA 2 with A27G, C29G, U52C, A53C, G54U
**Q.** Which Kd does the source give for B4 here?
**A.** 18.5 ± 7 nM

B5: target 1 MT 5'PFS UGC 3'PFS CCU (mixed)
RNA 1: B1 RNA 1
RNA 2: B1 RNA 2 with A27U, U52C, A53C, G54U
**Q.** How did the Kd turn out when B5 was run?
**A.** 15.5 ± 4.5 nM

B6: target 1 MT 5'PFS GGG 3'PFS ACC (mixed)
RNA 1: B1 RNA 1
RNA 2: B1 RNA 2 with A27G, C29G, U52A, A53C, G54C
**Q.** With B6 as the binder, how does the Kd read?
**A.** 25.5 ± 8.5 nM

B7: target 1 MT 5'PFS GCU 3'PFS UGC (mixed)
RNA 1: B1 RNA 1
RNA 2: B1 RNA 2 with A27G, G28C, C29U, A53G, G54C
**Q.** B7 was tested. Which Kd did it give?
**A.** 38 ± 7 nM

B8: target 1 MT 5'PFS UAU 3'PFS ACA (mixed)
RNA 1: B1 RNA 1
RNA 2: B1 RNA 2 with A27U, G28A, C29U, U52A, A53C, G54A
**Q.** B8 was tested. Which Kd did it give?
**A.** 54 ± 20.5 nM

B9: target 1 MT 5'PFS AGU 3'PFS UUG (mixed)
RNA 1: B1 RNA 1
RNA 2: B1 RNA 2 with C29U, A53U
**Q.** How did the Kd turn out when B9 was run?
**A.** 47 ± 17 nM

B10: target 1 MT 5'PFS CUU 3'PFS AAA (mixed)
RNA 1: B1 RNA 1
RNA 2: B1 RNA 2 with A27C, G28U, C29U, U52A, G54A
**Q.** For B10, which Kd is on record?
**A.** ~70 nM

B11: target 1 MT 5'PFS UAU 3'PFS ACC (mixed)
RNA 1: B1 RNA 1
RNA 2: B1 RNA 2 with A27U, G28A, C29U, U52A, A53C, G54C
**Q.** How did the Kd turn out when B11 was run?
**A.** 36 ± 15 nM

B12: target 1 MT 5'PFS GGC 3'PFS CUC (mixed)
RNA 1: B1 RNA 1
RNA 2: B1 RNA 2 with A27G, U52C, A53U, G54C
**Q.** With B12 as the binder, how does the Kd read?
**A.** 17.1 ± 7.05 nM

B13: target 1 MT 5'PFS GGC 3'PFS CUU (mixed)
RNA 1: B1 RNA 1
RNA 2: B1 RNA 2 with A27G, U52C, A53U, G54U
**Q.** For B13, which Kd is on record?
**A.** 11.3 ± 2.25 nM

B14: target 1 MT 5'PFS GCU 3'PFS AAC (mixed)
RNA 1: B1 RNA 1
RNA 2: B1 RNA 2 with A27G, G28C, C29U, U52A, G54C
**Q.** With B14 as the binder, how does the Kd read?
**A.** ~80 nM

B15: target 1 MT 5'PFS CUU 3'PFS UCU (mixed)
RNA 1: B1 RNA 1
RNA 2: B1 RNA 2 with A27C, G28U, C29U, A53C, G54U
**Q.** Which Kd does the source give for B15 here?
**A.** 30.5 ± 9 nM

B16: target 1 MT 5'PFS GCC 3'PFS CAU (mixed)
RNA 1: B1 RNA 1
RNA 2: B1 RNA 2 with A27G, G28C, U52C, G54U
**Q.** With B16 as the binder, how does the Kd read?
**A.** ~12 nM

B17: target 1 MT 5'PFS GGC 3'PFS CUG (mixed)
RNA 1: B1 RNA 1
RNA 2: B1 RNA 2 with A27G, U52C, A53U
**Q.** With B17 as the binder, how does the Kd read?
**A.** 17.3 ± 4 nM

B18: target 1 MT 5'PFS GGC 3'PFS CUA (mixed)
RNA 1: B1 RNA 1
RNA 2: B1 RNA 2 with A27G, U52C, A53U, G54A
**Q.** With B18 as the binder, how does the Kd read?
**A.** 15.2 ± 4.25 nM

B19: target 1 insC 3' of 16,insA 3' of 4 (mixed)
RNA 1: B1 RNA 1
RNA 2: GGGAAUGGAUCCACAUCUACGAAUUCGUACCAUAGACGAGGUUAUCCGCAUCACCGAGAUCGGAAGAGCACACGU
**Q.** How did the Kd turn out when B19 was run?
**A.** 38 ± 17 nM

B20: target 1 insU 3' of 7,insA 3' of 3 (mixed)
RNA 1: B1 RNA 1
RNA 2: GGGAAUGGAUCCACAUCUACGAAUUCGUACCAUAGAGAGGUUAUCUCGCUACACCGAGAUCGGAAGAGCACACGU
**Q.** With B20 as the binder, how does the Kd read?
**A.** 20.4 ± 1.3 nM

B21: target 1 MT 5'PFS GGA 3'PFS CAU (mixed)
RNA 1: B1 RNA 1
RNA 2: B1 RNA 2 with A27G, C29A, U52C, G54U
**Q.** Which Kd does the source give for B21 here?
**A.** 50.5 ± 18 nM

B22: target 1 MT 5'PFS GGG 3'PFS CCG (mixed)
RNA 1: B1 RNA 1
RNA 2: B1 RNA 2 with A27G, C29G, U52C, A53C
**Q.** How did the Kd turn out when B22 was run?
**A.** 15.1 ± 3.45 nM

B23: target 1 MT 5'PFS UCA 3'PFS UGU (mixed)
RNA 1: B1 RNA 1
RNA 2: B1 RNA 2 with A27U, G28C, C29A, A53G, G54U
**Q.** For B23, which Kd is on record?
**A.** 28.5 ± 5 nM

B24: target 1 MT 5'PFS GCC 3'PFS ACG (mixed)
RNA 1: B1 RNA 1
RNA 2: B1 RNA 2 with A27G, G28C, U52A, A53C
**Q.** B24 was tested. Which Kd did it give?
**A.** 13.9 ± 3.7 nM

B25: target 1 MT 5'PFS UAU 3'PFS ACU (mixed)
RNA 1: B1 RNA 1
RNA 2: B1 RNA 2 with A27U, G28A, C29U, U52A, A53C, G54U
**Q.** With B25 as the binder, how does the Kd read?
**A.** 29 ± 5 nM

B26: target 1 MT 5'PFS GCC 3'PFS ACA (mixed)
RNA 1: B1 RNA 1
RNA 2: B1 RNA 2 with A27G, G28C, U52A, A53C, G54A
**Q.** How did the Kd turn out when B26 was run?
**A.** ~64 nM

B27: target 1 MT 5'PFS GUC 3'PFS UUU (mixed)
RNA 1: B1 RNA 1
RNA 2: B1 RNA 2 with A27G, G28U, A53U, G54U
**Q.** B27 was tested. Which Kd did it give?
**A.** 15.1 ± 4.3 nM

B28: target 1 MT 5'PFS UAG 3'PFS AGA (mixed)
RNA 1: B1 RNA 1
RNA 2: B1 RNA 2 with A27U, G28A, C29G, U52A, A53G, G54A
**Q.** With B28 as the binder, how does the Kd read?
**A.** 30 ± 5.5 nM

B29: target 1 MT 5'PFS UAG 3'PFS AGU (mixed)
RNA 1: B1 RNA 1
RNA 2: B1 RNA 2 with A27U, G28A, C29G, U52A, A53G, G54U
**Q.** For B29, which Kd is on record?
**A.** 56.5 ± 16 nM

B30: target 1 MT 5'PFS ACC 3'PFS CUC (mixed)
RNA 1: B1 RNA 1
RNA 2: B1 RNA 2 with G28C, U52C, A53U, G54C
**Q.** How did the Kd turn out when B30 was run?
**A.** ~12 nM

B31: target 1 MT 5'PFS GCC 3'PFS ACU (mixed)
RNA 1: B1 RNA 1
RNA 2: B1 RNA 2 with A27G, G28C, U52A, A53C, G54U
**Q.** For B31, which Kd is on record?
**A.** 11.2 ± 2.05 nM

B32: target 1 MT 5'PFS GCU 3'PFS UGA (mixed)
RNA 1: B1 RNA 1
RNA 2: B1 RNA 2 with A27G, G28C, C29U, A53G, G54A
**Q.** Which Kd does the source give for B32 here?
**A.** 100 ± 40 nM

B33: target 1 A9G,U10G (mixed)
RNA 1: B1 RNA 1
RNA 2: B1 RNA 2 with A27G, G28U, C29A, U42G, A43G, U52C, A53C
**Q.** Which Kd does the source give for B33 here?
**A.** 37 ± 4 nM

B34: target 1 MT 5'PFS GGG 3'PFS CCC (mixed)
RNA 1: B1 RNA 1
RNA 2: B1 RNA 2 with A27G, C29G, U52C, A53C, G54C
**Q.** How did the Kd turn out when B34 was run?
**A.** ~50 nM
